Key:
AncSZ = assay: phosphorylation enrichment, bacterial display (enrichment ratio); higher = better substrate or ligand; peptides without Tyr show the background
Jak2 = Jak2 (UniProt O60674); assay: as above
EPHB1 = EPHB1 (UniProt P54762); assay: as above
Fyn = Fyn (UniProt P06241); assay: as above
c-Abl (mouse) = assay: as above
Fes = Fes (UniProt P07332); assay: as above
FGFR1 = FGFR1 (UniProt P11362); assay: as above
MERTK = MERTK (UniProt Q12866); assay: as above
FGFR3 = FGFR3 (UniProt P22607); assay: as above
EPHB2 = EPHB2 (UniProt P29323); assay: as above
EPHB2, sequence (P29323 whole entry, looked up): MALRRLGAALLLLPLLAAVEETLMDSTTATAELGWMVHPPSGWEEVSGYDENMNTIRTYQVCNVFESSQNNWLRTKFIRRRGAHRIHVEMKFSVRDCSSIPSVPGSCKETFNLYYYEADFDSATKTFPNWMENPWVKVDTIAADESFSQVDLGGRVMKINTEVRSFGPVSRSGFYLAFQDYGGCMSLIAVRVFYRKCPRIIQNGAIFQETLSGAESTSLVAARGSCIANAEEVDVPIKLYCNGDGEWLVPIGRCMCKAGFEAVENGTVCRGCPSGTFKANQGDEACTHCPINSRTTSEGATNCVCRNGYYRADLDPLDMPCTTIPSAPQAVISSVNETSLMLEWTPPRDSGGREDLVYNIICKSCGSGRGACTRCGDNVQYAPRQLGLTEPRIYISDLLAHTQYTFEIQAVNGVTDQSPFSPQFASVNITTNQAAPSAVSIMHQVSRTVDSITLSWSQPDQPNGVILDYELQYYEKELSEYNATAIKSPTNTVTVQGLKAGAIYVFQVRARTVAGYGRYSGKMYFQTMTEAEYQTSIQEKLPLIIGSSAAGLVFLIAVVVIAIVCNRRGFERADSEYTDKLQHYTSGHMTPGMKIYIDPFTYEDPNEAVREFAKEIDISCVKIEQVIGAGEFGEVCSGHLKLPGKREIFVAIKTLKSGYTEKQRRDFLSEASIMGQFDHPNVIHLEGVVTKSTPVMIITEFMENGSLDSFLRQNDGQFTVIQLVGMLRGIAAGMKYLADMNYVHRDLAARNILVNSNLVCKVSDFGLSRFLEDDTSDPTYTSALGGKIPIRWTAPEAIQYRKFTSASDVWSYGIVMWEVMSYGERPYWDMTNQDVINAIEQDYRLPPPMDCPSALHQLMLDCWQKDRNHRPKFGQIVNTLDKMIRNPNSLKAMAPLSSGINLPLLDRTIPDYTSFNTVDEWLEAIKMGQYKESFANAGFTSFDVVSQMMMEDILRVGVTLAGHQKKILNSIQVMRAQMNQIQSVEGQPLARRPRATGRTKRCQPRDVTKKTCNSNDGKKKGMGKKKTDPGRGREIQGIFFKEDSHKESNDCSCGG

Fer (mouse) = assay: as above
Hck = Hck (UniProt P08631); assay: as above
c-Src = assay: as above
Grb2 SH2 = Grb2 SH2 (UniProt P62993); assay: SH2 binding enrichment of the phosphorylated peptide, bacterial display (enrichment ratio); higher = better substrate or ligand; peptides without Tyr show the background
Grb2 SH2, sequence (P62993 whole entry, looked up): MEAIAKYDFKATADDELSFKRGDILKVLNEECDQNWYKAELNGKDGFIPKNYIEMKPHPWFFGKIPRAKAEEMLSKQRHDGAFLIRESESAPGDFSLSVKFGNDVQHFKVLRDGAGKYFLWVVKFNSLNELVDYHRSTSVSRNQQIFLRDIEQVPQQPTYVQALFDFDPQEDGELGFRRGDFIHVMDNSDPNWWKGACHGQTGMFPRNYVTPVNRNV

c-Src SH2 = assay: as above
SHP2-C SH2 = assay: as above
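Wherever SH2 binding enrichment of the phosphorylated peptide, bacterial display is given: peptide library displayed on the E. coli surface as eCPX fusions, selected cells deep-sequenced, score is each peptide's frequency after selection divided by its frequency in the input.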
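Wherever phosphorylation enrichment, bacterial display is given: 11-residue human phosphosite peptides and single-mutation variants displayed on the E. coli surface, counted by deep sequencing, each peptide's frequency after selection divided by its frequency in the unselected input library; frequency after pTyr selection over input frequency; kinase dosed for 20-30% of maximal phosphorylation in three min.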

Fyn, sequence (P06241 whole entry, looked up): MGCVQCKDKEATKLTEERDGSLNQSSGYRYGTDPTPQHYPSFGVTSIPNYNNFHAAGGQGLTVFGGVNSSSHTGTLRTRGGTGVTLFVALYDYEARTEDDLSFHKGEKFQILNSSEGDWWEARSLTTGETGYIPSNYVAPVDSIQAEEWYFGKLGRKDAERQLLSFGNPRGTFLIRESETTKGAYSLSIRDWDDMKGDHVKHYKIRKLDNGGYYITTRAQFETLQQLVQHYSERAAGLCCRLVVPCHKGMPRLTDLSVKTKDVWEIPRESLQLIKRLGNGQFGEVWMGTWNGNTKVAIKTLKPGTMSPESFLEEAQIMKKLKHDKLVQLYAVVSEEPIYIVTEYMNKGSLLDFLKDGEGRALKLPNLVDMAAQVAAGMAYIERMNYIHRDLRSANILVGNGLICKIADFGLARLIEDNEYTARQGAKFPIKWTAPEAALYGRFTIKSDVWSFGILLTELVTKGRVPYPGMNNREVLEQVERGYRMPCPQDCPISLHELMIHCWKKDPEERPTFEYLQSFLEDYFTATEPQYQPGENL
Jak2, sequence (O60674 whole entry, looked up): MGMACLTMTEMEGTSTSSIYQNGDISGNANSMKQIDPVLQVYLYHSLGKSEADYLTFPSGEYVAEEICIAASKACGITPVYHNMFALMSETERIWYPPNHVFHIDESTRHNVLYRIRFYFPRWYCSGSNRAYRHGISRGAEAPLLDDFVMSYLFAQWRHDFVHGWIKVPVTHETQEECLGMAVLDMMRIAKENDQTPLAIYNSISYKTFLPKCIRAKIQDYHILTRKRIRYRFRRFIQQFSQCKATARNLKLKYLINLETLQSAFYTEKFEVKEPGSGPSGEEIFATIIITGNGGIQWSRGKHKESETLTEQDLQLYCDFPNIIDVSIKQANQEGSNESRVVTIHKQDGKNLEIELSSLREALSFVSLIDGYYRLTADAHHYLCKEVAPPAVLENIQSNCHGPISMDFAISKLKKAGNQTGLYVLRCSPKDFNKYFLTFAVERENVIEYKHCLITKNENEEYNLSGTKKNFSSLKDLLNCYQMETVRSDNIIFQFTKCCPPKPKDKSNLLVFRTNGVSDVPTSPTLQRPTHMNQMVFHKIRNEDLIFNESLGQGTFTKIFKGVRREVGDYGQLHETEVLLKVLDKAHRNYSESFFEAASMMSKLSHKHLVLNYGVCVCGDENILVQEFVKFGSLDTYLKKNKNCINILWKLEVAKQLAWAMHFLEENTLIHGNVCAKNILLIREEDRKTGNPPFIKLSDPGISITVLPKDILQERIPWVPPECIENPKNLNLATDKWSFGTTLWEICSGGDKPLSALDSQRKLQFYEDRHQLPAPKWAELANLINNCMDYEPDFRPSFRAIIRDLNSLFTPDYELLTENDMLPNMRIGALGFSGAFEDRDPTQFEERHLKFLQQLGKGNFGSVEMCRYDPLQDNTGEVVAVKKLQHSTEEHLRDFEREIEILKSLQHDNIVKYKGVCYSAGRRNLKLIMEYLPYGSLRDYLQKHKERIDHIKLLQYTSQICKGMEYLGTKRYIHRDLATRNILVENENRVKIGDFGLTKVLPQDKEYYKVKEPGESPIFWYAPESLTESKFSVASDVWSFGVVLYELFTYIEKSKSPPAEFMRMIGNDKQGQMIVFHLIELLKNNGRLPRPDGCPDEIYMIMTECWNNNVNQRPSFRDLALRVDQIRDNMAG
FGFR1, sequence (P11362 whole entry, looked up): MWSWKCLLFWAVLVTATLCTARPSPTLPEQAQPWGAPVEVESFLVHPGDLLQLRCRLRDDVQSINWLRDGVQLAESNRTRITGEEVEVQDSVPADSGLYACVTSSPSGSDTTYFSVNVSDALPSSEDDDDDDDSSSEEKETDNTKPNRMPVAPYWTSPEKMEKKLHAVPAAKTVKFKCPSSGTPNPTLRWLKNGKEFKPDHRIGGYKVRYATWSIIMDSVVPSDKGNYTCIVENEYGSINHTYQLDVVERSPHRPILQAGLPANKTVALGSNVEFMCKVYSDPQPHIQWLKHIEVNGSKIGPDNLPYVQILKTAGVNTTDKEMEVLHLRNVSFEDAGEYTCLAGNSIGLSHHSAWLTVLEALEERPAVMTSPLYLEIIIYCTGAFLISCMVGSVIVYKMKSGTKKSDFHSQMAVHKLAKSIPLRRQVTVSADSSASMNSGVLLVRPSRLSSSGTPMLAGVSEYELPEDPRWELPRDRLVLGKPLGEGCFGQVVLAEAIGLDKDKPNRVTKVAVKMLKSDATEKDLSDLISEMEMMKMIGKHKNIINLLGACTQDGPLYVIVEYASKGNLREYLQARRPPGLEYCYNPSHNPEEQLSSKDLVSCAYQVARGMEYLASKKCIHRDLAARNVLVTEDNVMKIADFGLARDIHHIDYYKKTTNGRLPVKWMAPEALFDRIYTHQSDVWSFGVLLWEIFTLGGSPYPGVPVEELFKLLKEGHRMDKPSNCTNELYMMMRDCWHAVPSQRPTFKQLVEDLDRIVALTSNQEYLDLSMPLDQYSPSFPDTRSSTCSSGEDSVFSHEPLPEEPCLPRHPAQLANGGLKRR
MERTK, sequence (Q12866 whole entry, looked up): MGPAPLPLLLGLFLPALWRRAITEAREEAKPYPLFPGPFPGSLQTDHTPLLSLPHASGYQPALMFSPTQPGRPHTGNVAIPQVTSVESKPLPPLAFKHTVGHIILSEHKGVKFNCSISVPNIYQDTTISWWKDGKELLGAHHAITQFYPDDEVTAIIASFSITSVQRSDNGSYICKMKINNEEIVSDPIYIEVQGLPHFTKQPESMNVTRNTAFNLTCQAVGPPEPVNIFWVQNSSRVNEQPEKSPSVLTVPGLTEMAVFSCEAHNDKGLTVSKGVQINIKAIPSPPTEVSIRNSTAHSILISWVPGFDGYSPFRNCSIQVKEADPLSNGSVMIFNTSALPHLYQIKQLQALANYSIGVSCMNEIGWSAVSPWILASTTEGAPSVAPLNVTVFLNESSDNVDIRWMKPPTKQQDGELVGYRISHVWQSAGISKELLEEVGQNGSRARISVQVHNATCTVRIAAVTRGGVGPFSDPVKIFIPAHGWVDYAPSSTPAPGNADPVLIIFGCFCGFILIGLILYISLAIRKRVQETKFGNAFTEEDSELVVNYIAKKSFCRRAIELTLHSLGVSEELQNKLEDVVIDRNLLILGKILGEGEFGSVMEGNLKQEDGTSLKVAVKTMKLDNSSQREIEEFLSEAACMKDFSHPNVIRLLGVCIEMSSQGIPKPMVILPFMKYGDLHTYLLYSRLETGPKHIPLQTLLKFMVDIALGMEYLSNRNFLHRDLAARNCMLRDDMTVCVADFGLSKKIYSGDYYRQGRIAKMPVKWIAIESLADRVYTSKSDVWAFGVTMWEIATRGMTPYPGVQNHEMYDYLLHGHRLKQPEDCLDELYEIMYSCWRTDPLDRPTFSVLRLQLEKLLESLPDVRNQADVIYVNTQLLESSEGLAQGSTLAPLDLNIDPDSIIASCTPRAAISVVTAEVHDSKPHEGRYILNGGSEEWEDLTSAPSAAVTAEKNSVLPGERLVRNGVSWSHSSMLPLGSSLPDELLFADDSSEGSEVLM

Sequence | phosphorylation enrichment (AncSZ) | phosphorylation enrichment (Jak2) | phosphorylation enrichment (EPHB1) | phosphorylation enrichment (Fyn) | phosphorylation enrichment (c-Abl (mouse)) | phosphorylation enrichment (Fes) | phosphorylation enrichment (FGFR1) | phosphorylation enrichment (MERTK) | phosphorylation enrichment (FGFR3) | phosphorylation enrichment (EPHB2) | phosphorylation enrichment (Fer (mouse)) | phosphorylation enrichment (Hck) | phosphorylation enrichment (c-Src) | SH2 binding enrichment (Grb2 SH2) | SH2 binding enrichment (c-Src SH2) | SH2 binding enrichment (SHP2-C SH2)
SHTPSYCDESL [RITA1_Y109] | 0.806 | 0.62 | 0.462 | 0.405 | 0.566 | 0.831 | 0.502 | 0.419 | 0.516 | 0.459 | 0.505 | 0.405 | 0.403 | 0.895 | 0.678 | 0.706
SIGLGYHKDLQ [NF1_Y1169] | 0.528 | 0.548 | 0.34 | 0.427 | 0.487 | 0.536 | 0.414 | 0.381 | 0.486 | 0.629 | 0.368 | 0.424 | 0.458 | 0.776 | 0.423 | 0.639
SIKDKYLTALY [KCNH2_Y611_V612L] | 0.727 | 0.624 | 0.456 | 0.56 | 0.487 | 0.707 | 0.417 | 0.439 | 0.546 | 0.452 | 0.44 | 0.651 | 0.623 | 0.968 | 0.565 | 0.634
SIKNKYVTALY [KCNH2_Y611_D609N] | 0.559 | 0.605 | 0.349 | 0.359 | 0.454 | 0.592 | 0.409 | 0.528 | 0.598 | 0.498 | 0.518 | 0.47 | 0.461 | 0.909 | 0.381 | 0.932
SIRFNYLLDVL [FGFR4_Y237_YF] | 0.94 | 1 | 0.539 | 0.432 | 0.706 | 1.14 | 0.481 | 0.387 | 0.747 | 0.518 | 0.502 | 0.485 | 0.413 | 1.37 | 1.1 | 1.3
SKAYAYVHFDS [PABPC5_Y149_G146A] | 0.967 | 1.05 | 0.549 | 0.394 | 0.789 | 1.19 | 0.445 | 0.389 | 0.803 | 0.461 | 0.477 | 0.398 | 0.365 | 0.893 | 4.66 | 14.2
SLFPGYNFRFA [P2RX7_Y291_YF] | 0.844 | 0.673 | 0.614 | 0.472 | 0.508 | 0.953 | 0.433 | 0.475 | 0.736 | 0.46 | 0.511 | 0.476 | 0.502 | 1.24 | 0.819 | 0.962
SLLTDCSPQLQ [OTC_Y345_Y345C] | 0.999 | 0.905 | 0.567 | 0.454 | 0.768 | 1.06 | 0.518 | 0.441 | 0.707 | 0.548 | 0.522 | 0.554 | 0.475 | 0.975 | 0.483 | 0.765
SLLTDYSPQLQ [OTC_Y345] | 0.776 | 0.788 | 0.459 | 0.45 | 0.483 | 0.796 | 0.447 | 0.381 | 0.546 | 0.508 | 0.453 | 0.48 | 0.372 | 0.708 | 0.517 | 0.918
SLYPGYNFRYA [P2RX7_Y291] | 0.63 | 0.495 | 0.423 | 0.413 | 0.477 | 0.685 | 0.44 | 0.399 | 0.57 | 0.604 | 0.498 | 0.529 | 0.378 | 0.91 | 0.666 | 0.672
SNMPTYSGHFS [GRIN2A_Y1224_T1229S] | 0.594 | 0.662 | 0.585 | 1.7 | 0.684 | 0.581 | 0.433 | 1.15 | 0.45 | 0.784 | 1.04 | 1.48 | 2.61 | 0.898 | 0.491 | 0.643
SQETYYRVSNM [ABCD1_Y181_Q178E] | 1.37 | 3.85 | 4.42 | 2 | 1.33 | 0.805 | 6.81 | 3.7 | 4.94 | 2.95 | 0.549 | 3.97 | 2.96 | 0.657 | 0.473 | 0.79
SQKRKYIEIDS [SDAD1_Y580] | 0.818 | 0.701 | 0.463 | 0.451 | 0.613 | 0.614 | 0.463 | 0.571 | 0.376 | 0.414 | 0.394 | 0.475 | 0.507 | 0.856 | 2.09 | 1.04
SQQTYYRVSNM [ABCD1_Y181] | 0.703 | 6.19 | 1.93 | 1.47 | 0.795 | 0.678 | 7.77 | 3.23 | 5.82 | 1.12 | 0.401 | 3.23 | 3 | 0.853 | 0.636 | 0.789
SQSPHYFRSGR [GPATCH8_Y1038] | 0.719 | 0.687 | 0.56 | 0.476 | 0.544 | 0.819 | 0.383 | 0.502 | 0.425 | 0.394 | 0.427 | 0.389 | 0.538 | 0.731 | 0.394 | 0.411
SREALYNETDP [CACNA1A_Y794_M797T] | 1.16 | 1.14 | 0.67 | 0.624 | 0.996 | 1.37 | 0.559 | 0.625 | 0.815 | 0.642 | 0.663 | 0.739 | 0.722 | 0.89 | 0.764 | 0.641
SRGSSYSSIPK [FLNC_Y2625] | 0.474 | 0.498 | 0.304 | 0.358 | 0.428 | 0.518 | 0.479 | 0.489 | 0.362 | 0.322 | 0.37 | 0.381 | 0.444 | 0.769 | 1.02 | 0.563

Reference: the supplement of paper PMC10065799, “High-throughput profiling of sequence recognition by tyrosine kinases and SH2 domains using bacterial peptide display” (eLife, 2023)
